Reference: the DeepSol protein solubility set

Test: soluble on expression in E. coli; label from the status in PepcDB or PDB records
In the case of “MVRVAVIGGSGVYDFPAENKRELTVETPYGKVNLTIGHVAGEEVAFLARHGKGHSVPPHKVNYRANIWALHELGVERIVATSAVGSLNPNMRPGDFVILDQLIDFTVSRPRTFYDGEESPHDRKFVAHVDFTEPYCPEIRRALITAAKDLSLPYHPKGTYVCTEGPRFETAAEIRAYRILGGDVVGMTQCPEAALARELEMCYATVAIVTNYAAGISGKKLTHAEVVELMNKKTREITALITKAIPLIPKERNCPCKDALKGATG”, the “soluble on expression in E. coli” value is reported as “soluble”.
For “MVRVGMRAAPRVSLEALKAALGGLKLSEAKVYLITDWQDKRDQARYALLLHTGKKDLLVPDAFGPAFPGGEEALSELVGLLLAQGARRFYEAVVSPGEMTALLDLPPEELLKRVMAIANPTDPGIYLKRAA”, the “soluble on expression in E. coli” value was “soluble”.
With “MVSAPPTLQDQAFRSLVRNEVLTVSDAECLIREFFPPLFKEASTQKKPKTIMILVEHWPYPCLHVGLLIDKPNFQIFQAILDGVDTWLKRKYRPRMGRLKKVDFRDAQHHASLDMQDEREGRDYLVGTLPKKQIVEDHSRTRKERLKLFHDLSFMSSLHEDKHQTLLLEWAKERTSFLHLCCEKLEIGAVEVSKVRNVLKFLQPELIKELKLNTVGNLSKLAKFVPFIRKMRNLQKLMLVRTFGTRTFTQEEKQNISKIISLFCKLSCLRHLTIDDVYFLTDQMKELLRCLEAPLVSLKITLCQLSQSDLESFAQRWNYSQLKHLCLRGVTLTNLDVTPLRDFLKRVAANLQTLDLEDCRMDDSHFRTLLPALIKCTQLTSINLYDNDISEDVLENFLHRTTNLSQLTTEMYPAPSEVYNESNYVIVEIFIQICSELMNKLMEVRQANSVCFGSSSCYDCDNRYLYEDDGDVTLCLCQE” the “soluble on expression in E. coli” value was “not soluble”.
With “MVSARLIFVPLHARPSGISSATTGYVPWRSFIYRNGGGRPVQSSRPWLNMQQTLRITEIFYSLQGETRTAGLPTVFVRLTGCPLRCHYCDTAYAFSGGDVVSLDAIFERVAAYKPRYICVTGGEPLAQPNCISLLERLCDAGYEVSLETSGALDVSRVDPRVSKVLDLKTPGSGEVGRNRYENIPLLTDNDQVKFVVCSREDYDWAVSKLIEYRLDQRAGEVLFSPSHHQVSARELADWIVADNLPVRLQLQLHKILWNDEPGH” the “soluble on expression in E. coli” value was “soluble”.
With “MVSDIVLEVQSLHVYYGAIHAIKGIDLKVPRGQIVTLIGANGAGKTTTLSAIAGLVRAQKGKIIFNGQDITNKPAHVINRMGIALVPEGRRIFPELTVYENLMMGAYNRKDKEGIKRDLEWIFSLFPRLKERLKQLGGTLSGGEQQMLAIGRALMSRPKLLMMDEPSLGLAPILVSEVFEVIQKINQEGTTILLVEQNALGALKVAHYGYVLETGQIVLEGKASELLDNEMVRKAYLGVA” the “soluble on expression in E. coli” value was “soluble”.
With “MVSFKRYELPPLPYNYNALEPYIIEEIMKLHHQKHHNTYVKGANAALEKIEKHLKGEIQIDVRAVMRDFSFNYAGHIMHTIFWPNMAPPGKGGGTPGGRVADLIEKQFGGFEKFKALFSAAAKTVEGVGWGVLAFDPLTEELRILQVEKHNVLMTAGLVPILVIDVWEHAYYLQYKNDRGSYVENWWNVVNWDDVEKRLEQALNNAKPLYLLPQ” the “soluble on expression in E. coli” value was “soluble”.
With “MVSFVNCRSQIKTNMQEQNNPLLCNPESGFCEMPSIKPDTAHQADLKSDKKPVKVIYYTDPICSSCWGIEPQLRKLKLEYGTSIDIEYRMGGLLPDWSYNSGGISKPSDVAHHWDEVSVYYDMPIDGGVWLEDPLPSSYPPSIAFKAVQIQSTERAILFLREIREMVFLQKKNIAKWEHLEQAAKNTGVNIEQFKKDYEGRAKDLFYADLKLARDLGVHGFPTMIFSDSTGKNETVYGYKPYAVFENTIAGLYPSVQKYTYDKSIAAVFSTFHSLTAKEFSELTGVARNQSEQMLDEYVKQGMLQKWTTKNGSLWSLKK” the “soluble on expression in E. coli” value was “not soluble”.
For “MVSIELRDIIKRFGEFELKVSLSVKDGELLTLLGPSGCGKTTTLRIIAGLEKPDKGRVYFDGRDITDLPPYERNIGLVFQDYALFPHMTVFKNVAFGLEVRRVPRMEIEKRVREVLDLVGLRGFENRLPEELSGGQQQRVALARALVIEPDVLLLDEPLSNLDAKVREKLRGEIKRIVKELGITTIYVTHDQEEAMVLSDRIAVMNFGRIEQVGEPYDLYYNPKNEFVANFLGISNIVELEAKEGRACLGDLCFEVGREGKGKIFFRPENVAVGEGIEAEVIGYELLPGRVRLRLSIEGREIIAEELLSRIGKKIPKKVRIRVREFKILP”, the “soluble on expression in E. coli” value was “soluble”.
For “MVSKIIKLGVPTATLAVGTLLLGDDEKRSAFFRTASAFTQNHGHKTFDEHFPRGEWDKNWDFRDPISLVDKGKWEKADEEGKKKLIEEKKATATRNIFLIRHGQYHLDHEVKMLTPLGREQAELLGKRLANSDIKFTNMTMSTMVRATETANIILKHLPDDLTRTSSPFIEEGPPYPPVPDHKTWRPLDPEFYTEAARIESAYRKIFHRASPSQKEDSFELIVCHANVIRYFICRALQFPPEGWLRMSLGNCSLTWITIRPKGHVSVRSIGDIGHLPPNKISFT”, the “soluble on expression in E. coli” value was “not soluble”.
With “MVSYKARISLSGTEHRVVDRVCNEIKEIASRTGVEIHGPMPLPTKRLVVPVRKSPDGEGTNTWDHWEMRIHKRLIDVDADERTLRQLMRIPIPDGVQIEIQIKS” the “soluble on expression in E. coli” value was “soluble”.
With “MVTAPPTDYFASFTTNDDALVLASVSSDAELELLNVWLRTHRREHPDSKVDVLQLPAADEPAPGDLARLVEELEADENRLVVPVRVFWVPGGLPTRLKVVALMSGRDTYRPPEILQRRILRKDPSRARVVAGEPAKVSELRKQWSETTVGENPRDFAHFVLRRAVLAIERVELRLLGPEYKSPRLVKPEMMASSRFREGLAKIPGATPEKAGEMLDELSTGWSRFSVDLIPSLGRAIFSRGFDPRIDYDRIEIEQMRHALEQHPAVLLFSHRSYLDGVIVPVAMQENRLPPVHTFAGINLSFGIMGPIFRHSGVIFLRRKLDDPLYKYVLRQYVGYLVEKRFNLNWSIEGTRSRTGKMLPPKLGLLAYVADAYLDGRSDDILLQPVSISFDQLHETAEYAEYARGGEKRPEGLSWLYNFVKAQGERNYGKIYVRFPEAVSMRQYLGEPHGPLVEDEAAKRLAMQKMAIEVAWRILRVTPVNATNLVSALLLTARGVALTLEQLHQALQDSLDYLEQKKTPVTNSAMRLRTLEGVRAAVDALSGGHPVTCVDTGREPVWRIAPENELEAAFYRNSLIHAFLETSLVELALAYAARTADAEGDPLQAFWTQVVRLRDLLKFDFYFADSAAFHQNVAEEMSWHADWEQQVRAGRDGIETLMRAKRPLLADAMLRPYFEAYTIVADVLRDAPAEIAEKDLTKLALGVGQQYVAQGRVRNNESVSALLFATARQVAADQGLLEHGPDLMEQRRAFRDELRGILRDLDTVDRYARELFAARERERRTKRDEAVLEHHHHHH” the “soluble on expression in E. coli” value was “soluble”.
In the case of “MVTAREVGRIGLRKLLQRIGIVAESMTPLATDPVEVTQLLDARWYDERLRALADELGRDPDSVRAEAAGYLREMAASLDERAVQAWRGFSRWLMRAYDVLVDEDQITQLRKLDRKATLAFAFSHRSYLDGMLLPEAILANRLSPALTFGGANLNFFPMGAWAKRTGAIFIRRQTKDIPVYRFVLRAYAAQLVQNHVNLTWSIEGGRTRTGKLRPPVFGILRYITDAVDEIDGPEVYLVPTSIVYDQLHEVEAMTTEAYGAVKRPEDLRFLVRLARQQGERLGRAYLDFGEPLPLRKRLQEMRADKSGTGSEIERIALDVEHRINRATPVTPTAVVSLALLGADRSLSISEVLATVRPLASYIAARNWAVAGAADLTNRSTIRWTLHQMVASGVVSVYDAGTEAVWGIGEDQHLVAAFYRNTAIHILVDRAVAELALLAAAETTTNGSVSPATVRDEALSLRDLLKFEFLFSGRAQFEKDLANEVLLIGSVVDTSKPAAAADVWRLLESADVLLAHLVLRPFLDAYHIVADRLAAHEDDSFDEEGFLAECLQVGKQWELQRNIASAESRSMELFKTALRLARHRELVDGADATDIAKRRQQFADEIATATRRVNTIAELARRQLEHHHHHH”, the “soluble on expression in E. coli” value is reported as “not soluble”.
In the case of “MVTFKPKVLHFVNATNLNQVDGTGTIVNEWIKAAGGQNALKQKGNMISVTTETLAKSDPDVIIVGSATTAEARAALKKNAVLSKLTAVKKNRVYGNPQGTFPWDRYSAEEALQVLWAAKKLHPDQFQLEHHHHHH”, the “soluble on expression in E. coli” value is reported as “not soluble”.
In the case of “MVVPLKRIDKIRWEIPKFDKRMRVPGRVYADEVLLEKMKNDRTLEQATNVAMLPGIYKYSIVMPDGHQGYGFPIGGVAAFDVKEGVISPGGIGYDINCGVRLIRTNLTEKEVRPRIKQLVDTLFKNVPSGVGSQGRIKLHWTQIDDVLVDGAKWAVDNGYGWERDLERLEEGGRMEGADPEAVSQRAKQRGAPQLGSLGSGNHFLEVQVVDKIFDPEVAKAYGLFEGQVVVMVHTGSRGLGHQVASDYLRIMERAIRKYRIPWPDRELVSVPFQSEEGQRYFSAMKAAANFAWANRQMITHWVRESFQEVFKQDPEGDLGMDIVYDVAHNIGKVEEHEVDGKRVKVIVHRKGATRAFPPGHEAVPRLYRDVGQPVLIPGSMGTASYILAGTEGAMKETFGSTCHGAGRVLSRKAATRQYRGDRIRQELLNRGIYVRAASMRVVAEEAPGAYKNVDNVVKVVSEAGIAKLVARMRPIGVAKG”, the “soluble on expression in E. coli” value is reported as “soluble”.
In the case of “MVYDDANKKWVPAGGSTGFSRVHIYHHTGNNAFRVVGRKIQDHQVVINCAIPKGLKYNQATQTFHQWRDARQVYGLNFGSKEDASVFASAMMHALEVLNSQDAGEKALFTAGCEV”, the “soluble on expression in E. coli” value is reported as “soluble”.
With “MVYFAYGSNLCLEQMKKRCPEAIPMISVHLDDYKLVYNKYADIIPCEGEKVYGAIYEISLNDLKNLDKYEEYSDLYEKIDLIVQDINGISYEAFAYVMNEKGDKTPDKRYLDIINKGYEDWGIIY” the “soluble on expression in E. coli” value was “not soluble”.
With “MWDQHMHCMFSGDSDADPVLMINSAINKGLDGICFTDHLDYDYKEEPGLFDLDIAAYEKRIKRLAIVLKEKGCPINIHWGIEIGLQPHITDKNNEVAKKYPFDLVIGSSHVVNGIDPYYPAFYKGKTEHEAYTEYFESILDNLHSGADFDVYGHIDYVVRYGPDKNKYYSYERYADIIDAILKEIISQGKGIELNTAGFKYGLGHSNPTEDVLKRYHELGGEIITVGADAHKPEHVAYDFDKVSNILKDAGFMYYTVFENRVPAFIKL” the “soluble on expression in E. coli” value was “not soluble”.
With “MWDVKDIEQLSFARGLAIDETNDHQYKLTYQNLLPQSEDSQASGKPEFVNVTSHGKTILEAVSDVSIKDPPVYSDHLKVILLGEKLMRNQNVDQVLNHFIRDDELRRSSYLMAARGNAADVFTKGNPNQQQPMPSEKLIDLTTHSGYNGKIMIPLRIGRASVYSQNGYSYLIQAVKNEKGKAKYDGAGIIKRGSNKLVGFLSADETQTLSWVMGTIQGGVMPTTDKGHPITFEIKKSKTKIKPVIENGKPVFHISVKTKGILTEDQNPNENSFSKSYLHRLENIFEKKLERDVKQVMDKLQHEYKTDPVFLSDHIRIQHPDYWNKVKGHWDEIFSETDFKYDISFKIINFGTVGKLEHHHHHH” the “soluble on expression in E. coli” value was “soluble”.
For “MWERSLRDTMRGRTSTLKVAILCFEKDRPKLEALKEILGRSYEVEFVDYSKDVWDDVLQYDCIVAYLASGIVVRGICGRLRGKWKDPAVIVLDKPLKHAVVMLGGHHGGNEVAKKLEEAGLKAVITTAMEFTEGYSVGVGFRKNATADEILEAIAMALEEVGGRMEEIRVISTVDAKRDSAIVEVANRLKRPLIFVRAEEINSMDIRETKAVKIGVKNVAEACAIYASNSGELILPKRVYGGVTVAIAW”, the “soluble on expression in E. coli” value was “not soluble”.
With “MWEYLIHGEPTPRLKPFLEGVGKALEAQGFRHNPESEAPNLVLNAITPENPRPYRRRAQATFVASVLELPEFPQDPLRELYPYLVRALSNVLLAYVPGQGVKFLTLELGHYGEPEGKGFYERVAARLRPIACSRLVINNIFEPDLEPELWQGDELTESMYRAGKKLKEWDLLPAPFPIEEILPPEDLRHVKRLYGIGGLSYGNLSVRKDEKRFWMSASGVDKANLREIGRDILMVKDYDPERNAILLSVPPHVEPRRVSVDAIEHWMIYREHPEVGAILHVHAWMEGVPATAFNYPCGTYELAQAVADKVREAPDPARAVVGLKNHGLTITGRSLDEILERIEGKLIRTVPMA” the “soluble on expression in E. coli” value was “soluble”.
